This note sets out measurements from the nanobody polyreactivity screen of Harvey et al. (2022).

The series can be described thus: yeast display, Sf9 membrane polyspecificity reagent, FACS + sequencing; frameworks hold sequencing errors. The procedure, abridged: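 Using colony PCR, genes from sorted yeast display clones were amplified, then sequenced on MiSeq at 2 × 250 and filtered by CDR length. The clones had been stained with 10% biotinylated, detergent-solubilized Sf9 membrane reagent for 1 hour at 4 °C and sorted by FACS into low and high (top ~1%) gates on anti-HA and streptavidin fluorescence. Polyreactivity labels come from the gate of origin.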
Regarding “QVQLVESAGGLVQAGGSLRLSCAASGLTFVPNAMGWYRQAPGKEREFVAAISNNGGRTYYADSVKGRFTISRDNAKNTVYLEMNSLKPEDTAVYYCAKFLSPGERHSYDYWGQGTQVTVSS”, the “polyreactivity (PSR sort gate)” value is “high polyreactivity”.

With “QVQLVESAGGLVQAGGSLRLSCAASGNTFYPYAMGWYRQAPGKERELVAAITSVGRTYYADSVKGRFTITRDNAKNTVYLQMNSLKPEDTAVYYCAAVVYYRGYTYNYWGQGTQVTVSS”, the “polyreactivity (PSR sort gate)” value is listed as “high polyreactivity”.

Consider “QVQLVESAGGLVQAGGSLRLSCAASGRIFRYNAMGWYRPAPGKERELVAAISSIGGRTYYADTVKGRFTISRDNAKNTVYLQMYSLKPEDTAVYSCNARGYLSRSHMHEYDYWGQGTQVTVSS”, for which the “polyreactivity (PSR sort gate)” value was “high polyreactivity”.

In the case of “QVQLVESAGGLVQAGGSLRLSCAASGRIFSIYAMGWSRQAPGKERELVAAIRRGGSTSYADSVKGRFTISRDNAKNTVYLQMNSLKPEDTAVYYCAARLRYLGYDFWGQGTQVTVSS”, the “polyreactivity (PSR sort gate)” value is on record as “high polyreactivity”.

Take “QVQLVESAGGLVQAGGSLRLSCAASGRIFVRYAKGRYREAPGKVRELVAAISSSGSSTYYADSVKRRFTISRDNASNTVYLQMNSLKPEDTAVYYCNAVPSVRWRYDYWGQGTQVTVSS”: the “polyreactivity (PSR sort gate)” value is listed as “high polyreactivity”.

With “QVQLVESAGGLVQAGGSLRLSCAASGRNFVDYAMGWYRQAPGKERELVAAITQRGGSTYYADSVKGRFTISRDNAKNTVYLQMNSLKPEDTAVYYCAAVTRFYTKYYWGQGTQVTVSS”, the “polyreactivity (PSR sort gate)” value is “high polyreactivity”.

With “QVQLVESAGGLVQAGGSLRLSCAASGRTIRWYTMGWYRQAPGKERELVAGISSSGGSTYYADSVKGRFTISRDTAKNTVYLQMNSLKPEDTAVYYCNVVTWYYVFRPWEYDYWGQGTQVTVSS”, the “polyreactivity (PSR sort gate)” value was “low polyreactivity”.

For the sequence “QVQLVESAGGLVQAGGSLRLSCAASGSIFVYNTMGWYRQAPGKERELVASITYSGGSTYYADSVKGRFTISRDNAKNTVYLQMNSLKPEDTAVYYCNTDDVALQWDWYPYPYDYWGQGTQVTVSS”, the “polyreactivity (PSR sort gate)” value is “low polyreactivity”.

As for “QVQLVESAGGLVQAGGSLRLSCAASGSNFGDYPLGWYRQAPGKERELVAAISVRGGSTYYADSVKGRFTISRDNAKITVYLQMKSLKPEDTAVYYCNKDLYRYPGYDYWGHGTQVTVSS”, the “polyreactivity (PSR sort gate)” value is reported as “high polyreactivity”.

Consider “QVQLVESAGGLVQAGGSLRLSCAASGSTFLIYALGCYRHAPGKERELVAAITVSGGDTYYADSVKGRFTISRDNAKNTVYLQMNSLKPEDTAVYYCAAEGGNDYSSVDAGISYDYWGQGTKVTVSS”, for which the “polyreactivity (PSR sort gate)” value is “low polyreactivity”.

Consider “QVQLVESAGGLVQAGGSLRLSCAASGSTFWLYAMGWYRQAPGKERELVAAISYTGTSTYYADSVKGRFTISRDNAKNTVYLQMNSLKPEDTAVYDCAADFVGLVTGYDYSWGQGTQVTVSS”, for which the “polyreactivity (PSR sort gate)” value was “low polyreactivity”.

Turning to “QVQLVESAGGLVQAGGSLRLSCAASGSTIYGCVMGWYRHAPGKERELVAGITRGGSTNYADSVKGRFTISRDNAKNTVYLQMNSLKPEDTAVYYCATRYFSRYYYWGQGTQVTVSS”, the “polyreactivity (PSR sort gate)” value is on record as “high polyreactivity”.

Regarding “QVQLVESAGGLVQAGGSLRLSCAASGTFYYYAMGWYRQAPGKERELVAAISNGDSTTYADSVKGRFTISRDNAKNTVYLQMNSLNPEDTAVYYCAAYRYTPRTSRGYYYWGQGTQVTVSS”, the “polyreactivity (PSR sort gate)” value is given as “low polyreactivity”.

Regarding “QVQLVESAGGLVQAGGSLRLSCAASGYTISYANAMGWYRQAPGKERELVASISSTGGRTYYADSVKGRFTISRDNAKNTVYLQMNSLKPEDTAVYYCASRYWRYGYWGQGTQVTVSS”, the “polyreactivity (PSR sort gate)” value is given as “high polyreactivity”.

“QVQLVESAGGLVQAGGSLRLSCAASVSIFFIYARGWYRQAPGKERELVATISRSDVSTFYGDSVKGRFTISRDNAKNTVYLQMNSLKPEDTAVYYCAAEWSPPEPIQLYGYWGQGTQVTVSS”: the “polyreactivity (PSR sort gate)” value is “high polyreactivity”.

Turning to “QVQLVESAGGLVQAGGSLRLSCAASVSTIAPNAMGWYRQAPGKERELVASIRRGGSTHYADSVKGSFTISRDNAKNTVYLQMNSLKPEDTAVYYCAKDVWRHYLNLYDYWGQGTQVTLSS”, the “polyreactivity (PSR sort gate)” value was “low polyreactivity”.

For the sequence “QVQLVESAGGLVQAGGSLRLSCDASGRIFQRNAMGWYRQEPGKERQFVAAISSRGGTTYYADSVKGRFTISRDNAKNTVYLQMNSLKQEDNAVYYCAAGYVHLYYFHEYYWGQGTQVTVSS”, the “polyreactivity (PSR sort gate)” value was “high polyreactivity”.

On to “QVQLVESAGGLVQAGGSLRLSCGASGRIFGWYALGWSRQAPGKERQLVAAITRSGGSTFYADSVKGRFTISRDNAKNTVYLQMHSLKPDDTAVYYCNARYFNGRHKHYYWGQGTQVTVSS”, for which the “polyreactivity (PSR sort gate)” value was “high polyreactivity”.

Take “QVQLVESAGGLVQAGGSLRLSCPASGGISALYAMGWYRQAPGKERELVAAISASGGSTYYADSVKGRFTISRDNAKNTVYLQMNSLKPEDTAVYYCNVAVLTSDIYSTTIYYYGIYDYWGQGTQVTVSS”: the “polyreactivity (PSR sort gate)” value was “high polyreactivity”.

With “QVQLVESAGGLVQAGGSLRLSCSASGSTFSSNGMGWYRKAPGKERELVAAITSVGSTNYADSVKGRFTISRDNAKNTVYLQMNSLKPEDTAVYYCNAERTAYGGGDYWGQGTQVTVSS”, the “polyreactivity (PSR sort gate)” value is recorded as “low polyreactivity”.

Take “QVQLVESAGGLVQAGGSLRLSSAASGRIFKYNAMGWYRQAPGKERELVAAISSSGARTYYADSVKGRFTISRDNAKNTVYLQMNSLKPEDTAVYYCAVYYYDFTSTEYGYWGLGTQVTVSS”: the “polyreactivity (PSR sort gate)” value is “high polyreactivity”.

“QVQLVESAGGLVQAGGSLSLSCAASGFTFYRNAMGWYRQAPGQERELVAAISRSGGRTYYADSVKGRFTISRDNAKNTVYLQMNSLKPEDTSVYYCAVYVTRDSGWWLYDYWGQGTQVTVSS”: the “polyreactivity (PSR sort gate)” value is given as “high polyreactivity”.

For the sequence “QVQLVESAGGLVQAGGSLSLSCAASGRIFYSYAMGWYRQAPGKERELVAAISSAGSTYYADSVKGRFTMSRDNEKNTVYLQTNSLKPEDTAVYYCAAYRAGNSYYPRLNYWGQGTQVTVSS”, the “polyreactivity (PSR sort gate)” value was “high polyreactivity”.

Regarding “QVQLVESAGGLVQAGGSLSLSCAASGRIFYYNTMGWYRQAPGKERELVAAISSTASTTYADSVKGRFTISRDNAKNTVYLQMNILKPEDTAVYYCAADHRYHWAYPRGYYYWGQGTQVTVSS”, the “polyreactivity (PSR sort gate)” value is listed as “high polyreactivity”.

Take “QVQLVESAGGLVQAGGTLRLSCAASGSIFRTHTMGWYRQAPGKERELVAAITAIGDSTYYADAVKGRFTISRDNAKNTVNRQLHSLKPEDTAVYYCAAEKVSWGYHFYSSYDYWGQGTQVTVSS”: the “polyreactivity (PSR sort gate)” value is recorded as “low polyreactivity”.

Consider “QVQLVESAGGLVQAGVSLRLSCAASGRTFYWYTMGWYRQAPGKERELVAAISSAGSTYYADSVKGRFTISRDNAKNTVYLQMNSLKPEDTAVYSCAAGSHSGRAYYYWGQGTQVTVSS”, for which the “polyreactivity (PSR sort gate)” value is on record as “high polyreactivity”.

“QVQLVESAGGLVQARGSLRLSCAASGITFAQYAKGWYRQATGKERELVAGITRSGGSTHYADSVKGRFTISRDNAKYTVYLQMKSLKPEDSAVYYCNARYPYRGKRKPPDYWGQGTQVTVSS”: the “polyreactivity (PSR sort gate)” value is on record as “high polyreactivity”.

With “QVQLVESAGGLVQEGGSLRISCAASGRIFFYYSMGWYRQAPGKERELVAAISQSGGSTYYADSVKGRFTISRDNAKNTVYLQMNSLKPEDTAVYYCNAADPYYDTSAVAGDYWGHGTQVTVSS”, the “polyreactivity (PSR sort gate)” value is listed as “low polyreactivity”.

With “QVQLVESAGGLVQEGGSLRLSCAASGSTFGDNAMGWYSQAPGKERELVAAITSVGTTYYADSVKGRFTISRDNAKNTVYLQMNSLKPEDSAVYDCNADWSWYNYYDFDYWGQGTQVTVSS”, the “polyreactivity (PSR sort gate)” value is “low polyreactivity”.

“QVQLVESAGGVVQAGGSLRLSSAASGSIFDGNAMGWYRPAPGKERQLVAAISGGGRTYYADSVKGRFTISRDNAKNTVYLQMNSLKPEDTAVYYCAAAYTFYVYGSYKVTFDYWGQGTQVTVSS”: the “polyreactivity (PSR sort gate)” value is recorded as “low polyreactivity”.
